T1: MKvar (Ramazzottius varieornatus, UniProt A0A1D1VW28)
T1 construct: gene RvY_15762-1
T1 sequence (A0A1D1VW28 1-405): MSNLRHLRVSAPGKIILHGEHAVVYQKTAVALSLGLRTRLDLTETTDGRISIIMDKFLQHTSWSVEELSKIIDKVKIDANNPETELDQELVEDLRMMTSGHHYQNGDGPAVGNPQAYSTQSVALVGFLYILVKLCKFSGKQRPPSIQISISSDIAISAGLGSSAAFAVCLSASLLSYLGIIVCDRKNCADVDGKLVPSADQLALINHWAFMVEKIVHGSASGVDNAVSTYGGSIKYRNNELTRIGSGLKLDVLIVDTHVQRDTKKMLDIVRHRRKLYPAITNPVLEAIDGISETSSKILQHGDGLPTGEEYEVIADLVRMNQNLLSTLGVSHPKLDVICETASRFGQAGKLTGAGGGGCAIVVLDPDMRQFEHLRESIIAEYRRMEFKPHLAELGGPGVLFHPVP

T2: MKmaz (Methanosarcina mazei, UniProt Q8PW39)
T2 construct: gene mvk
T2 sequence (Q8PW39 1-301): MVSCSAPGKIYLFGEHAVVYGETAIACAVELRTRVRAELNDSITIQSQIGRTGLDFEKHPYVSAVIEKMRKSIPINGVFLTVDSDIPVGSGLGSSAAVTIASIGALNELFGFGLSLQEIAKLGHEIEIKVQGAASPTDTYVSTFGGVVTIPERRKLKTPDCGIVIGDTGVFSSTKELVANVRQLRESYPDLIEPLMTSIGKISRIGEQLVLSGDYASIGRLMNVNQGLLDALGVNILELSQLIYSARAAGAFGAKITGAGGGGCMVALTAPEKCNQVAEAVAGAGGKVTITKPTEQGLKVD


How the values were obtained:
MKbur = biological target: T3, MKbur (Methanococcoides burtonii, UniProt Q12TI0); assay: residual activity, coupled assay; assay type: biochemical; details: 1.5 mM mevalonate, 3 mM ATP
T3 construct: gene mvk

MKvar = biological target: T1, MKvar; assay: residual activity, coupled assay; assay type: biochemical
MKmaz = biological target: T2, MKmaz; assay: residual activity, coupled assay; assay type: biochemical
purified protein [1] = substrate: CC(O)(CCO)CC(=O)O; assay: purified protein; details: 5 mM ATP, Mg2+ 10 mM, 25 °C, racemic mevalonate
purified protein [2] = substrate: Nc1ncnc2c1ncn2[C@@H]1O[C@H](COP(=O)(O)OP(=O)(O)OP(=O)(O)O)[C@@H](O)[C@H]1O; assay: purified protein; details: 5 mM (RS)-mevalonate, Mg2+ 10 mM, 25 °C

remaining activity at 100 µM (MKvar) | remaining activity at 100 µM (MKmaz) | Molecule | % residual activity at 100 μM (MKbur) | Km (purified protein [1]) | kcat (purified protein [1]) | kcat/Km (purified protein [1]) | Km (purified protein [2])
< 20% | 92% | CC(C)=CCC/C(C)=C/COP(=O)(O)OP(=O)(O)O [geranyl pyrophosphate] | MKbur, like MKmaz, appears to be less sensitive to inhibition | – | – | – | –
0.4% | 70% | CC(C)=CCC/C(C)=C/CC/C(C)=C/COP(=O)(O)OP(=O)(O)O [farnesyl pyrophosphate] | MKbur, like MKmaz, appears to be less sensitive to inhibition | – | – | – | –
– | – | MKmaz (Methanosarcina mazei Go1) (protein) MVSCSAPGKIYLFGEHAVVYGETAIACAVELRTRVRAELNDSITIQSQIGRTGLDFEKHPYVSAVIEKMRKSIPINGVFLTVDSDIPVGSGLGSSAAVTIASIGALNELFGFGLSLQEIAKLGHEIEIKVQGAASPTDTYVSTFGGVVTIPERRKLKTPDCGIVIGDTGVFSSTKELVANVRQLRESYPDLIEPLMTSIGKISRIGEQLVLSGDYASIGRLMNVNQGLLDALGVNILELSQLIYSARAAGAFGAKITGAGGGGCMVALTAPEKCNQVAEAVAGAGGKVTITKPTEQGLKVD | – | 123 ± 9 µM | 10 s⁻¹ | 81000 M⁻¹ s⁻¹ | 511 ± 48 µM
– | – | MKbur (Methanococcoides burtonii DSM 6242) (protein) MITCSAPGKVYLFGEHAVVYGEPAICCAVDIRTRVTVSPADTITISSSLGTTGIDFEVHPYVSAVLERFQDISSFDGVDLRISSDIPVGSGLGSSAAVTVATIKAMDTLLDLGLELDDIAKMGHEVEQNIQGTASPTDTYVCTMGGVVLIPQRKKLELIDCGILIGNTNIFSSTKELVGNVADLNERFPDVVGPVLSSIGKLSVIGEGLVNDRDYVSVGELMNIDQGLLDAIGVSCAELSSLIYAARESGAYGSKITGAGGGGCMVAISPRENVDSVAEAIGMAGGKVVVANATDIGVRVECQ | – | 55 ± 11 µM | 5 s⁻¹ | 90000 M⁻¹ s⁻¹ | 331 ± 63 µM
– | – | MKvar (Ramazzottius varieornatus) (protein) MSNLRHLRVSAPGKIILHGEHAVVYQKTAVALSLGLRTRLDLTETTDGRISIIMDKFLQHTSWSVEELSKIIDKVKIDANNPETELDQELVEDLRMMTSGHHYQNGDGPAVGNPQAYSTQSVALVGFLYILVKLCKFSGKQRPPSIQISISSDIAISAGLGSSAAFAVCLSASLLSYLGIIVCDRKNCADVDGKLVPSADQLALINHWAFMVEKIVHGSASGVDNAVSTYGGSIKYRNNELTRIGSGLKLDVLIVDTHVQRDTKKMLDIVRHRRKLYPAITNPVLEAIDGISETSSKILQHGDGLPTGEEYEVIADLVRMNQNLLSTLGVSHPKLDVICETASRFGQAGKLTGAGGGGCAIVVLDPDMRQFEHLRESIIAEYRRMEFKPHLAELGGPGVLFHPVP | – | 237 ± 68 µM | 5 ± 0.8 s⁻¹ | 21000 M⁻¹ s⁻¹ | 4844 ± 1413 µM

Source: publication PMC10910542 (Acta Crystallographica. Section D, Structural Biology, 2024)
